Source: US20200140557A1 (published 2020)
One block for each binder: values may come before it.

Molecular target: T1, human FGFR1b extracellular domain
T1 chain: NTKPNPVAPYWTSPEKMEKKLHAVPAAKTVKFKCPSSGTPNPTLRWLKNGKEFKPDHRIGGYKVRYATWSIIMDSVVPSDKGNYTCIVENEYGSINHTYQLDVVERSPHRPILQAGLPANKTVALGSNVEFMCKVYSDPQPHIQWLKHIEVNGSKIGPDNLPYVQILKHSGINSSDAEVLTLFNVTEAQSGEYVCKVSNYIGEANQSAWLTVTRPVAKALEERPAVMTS
Experiment: SPR

Kd: 0.59 nM
B1: R1MAb1 (antibody)
chain 1: EVQLVESGGGLVQPGGSLRLSCAASGFTFTSTWISWVPGKGLEWVGEIDPYDGDTYYADSVKGRFTISADTSKNLQMNSLRAEDTAVYYCASSGYGGSDYAMDYWGQ
chain 2: DIQMTQSPSSLSASVGDRVTITCRASQDVSTAVAWYQQKPGKAPKLLIYSASFLYSGVPSRFSGSGSGTDFTLTISSLQPEDFATYYCQQSYTTPPTFGQGTKVEIKR

Kd: 0.44 nM
B2: R1MAb2 (antibody)
chain 1: EVQLVESGGGLVQPGGSLRLSCAASGFTFSNNYIHWVPGKGLEWVADIYPNDGDTDYADSVKGRFTISADTSKNLQMNSLRAEDTAVYYCAREHFDAWVHYYVMDYWGQ
chain 2: B1 chain 2
